Earlier results in PMC5394478.

How the values were obtained:
[1] = molecular target: IFNLR1 Box1-Box2 (Homo sapiens) (UniProt Q8IU57); assay: Biolayer Interferometry
[2] = molecular target: IFNLR1 Box1 (Homo sapiens) (UniProt Q8IU57); assay: Biolayer Interferometry

Kd [1]: 70 nM | Kd [2]: 1200 nM
Substance: JAK1 FERM-SH2 (from UniProt P23458)
